In US9315837B2, “Desaturases of a green microalga and uses thereof” (Ben Gurion University of the Negev Research and Development …, priority 2010, dated 2016):

Tested on: supplied fatty acids in S. cerevisiae strain W303
Assay: Functional expression of PiELO1 in S. cerevisiae fed with fatty acids, GC of FAMEs
Format: cell-based, Saccharomyces cerevisiae
Excerpt: The ORF encoding for PiELO1 was amplified using PfuUltra II fusion HS DNA polymerase (Stratagene, La Jolla, Calif.) with the forward primer, 5′-[…] (PUFAEL5RES1) (SEQ ID NO: 33), containing a restriction site (underlined) and a yeast translation consensus followed by ATG (double underlined) and the reverse primer 5′-[…] (PUFAEL3RES2) (SEQ ID NO: 34) containing a restriction site (underlined) and a stop codon (double underlined). The amplified sequence was then restricted with EcoRI and XbaI (NEB, Ipswich, Mass.). The expected bands were gel-purified with NucleoSpin Extract II purification kit (Machery-Nagel GmbH, Duren, Germany) and ligated into a EcoRI-Xba1 cut pYES2 vector, yielding YpPiELO1. Saccharomyces cerevisiae strain W303 was transformed with YpPiELO1 by the PEG/lithium acetate method. The yeast cells harboring the empty pYES2 vector were used as control. Transformants were selected by uracil prototrophy on yeast synthetic medium (YSM) lacking uracil (Invitrogen, Carlsbad, Calif.). For functional expression, a minimal selection medium containing 2% (w/v) raffinose was inoculated with the YpPiELO1-transformants and grown at 27° C. for 24 h in a water bath shaker. Five ml of sterile YSM, containing 1% (w/v) Tergitol-40 and 250 µM of the appropriate fatty acid was inoculated with raffinose-grown cultures to obtain an OD of 0.2 at 600 nm. Expression was induced by adding galactose to a final concentration of 2% (w/v) and cultures were further grown at 27° C. for 48 h. Cells were harvested by centrifugation, washed twice with 0.1% NaHCO3, freeze-dried and used for fatty acid analysis.
Fatty acid methyl esters (FAMES) were obtained by transmethylation of the freeze-dried P. incisa or yeast biomass, with dry methanol containing 2% H2SO4 (v/v) and heating at 80° C. for 1.5 h while stirring under an argon atmosphere. Gas chromatographic analysis of FAMES was performed on a Thermo Ultra Gas chromatograph (Thermo Scientific, Italy) equipped with PTV injector, FID detector and a fused silica capillary column (30 m×0.32 mm; ZB WAXplus, Phenomenex). FAMES were identified by co-chromatography with authentic standards (Sigma Chemical Co., St. Louis, Mo.; Larodan Fine Chemicals, Malmo, Sweden) and FAME of fish oil (Larodan Fine Chemicals). Each sample was analyzed in duplicates of three independent experiments. The structures of fatty acids were confirmed by GC-MS of their pyrrolidine derivatives [W. W. Christie, The analysis of fatty acids in: W. W. Christie (Ed.), Lipid analysis Isolation, separation, identification and structural analysis of lipids, vol. […]

B1: PiELO1: P. incisa Δ6 PUFA elongase, 289 amino acid residues, SEQ ID NO: 7 (protein, listed as Parietochloris incisa)
chain: MALTAAWHKYDAIVSRFVFDGLRRVGLQEIQGHPSVITAHLPFIASPTPQVTFVLAYLLIVVCGVAALRTRKSSAPREDPAWLRLLVQAHNLVLISLSAYMSSAACYYAWKYGYRFWGTNYSPKERDMGGLIYTFYVSKLYEFVDTLIMLLKGKVEQVSFLHVYHHASISTIWWAIAYVAPGGDAWYCCFLNSLVHVLMYTYYLLATLLGKDAKARRKYLWWGRYLTQFQMFQFVTMMLEAAYTWAYSPYPKFLSKLLFFYMITLLALFANFYAQKHGSSRAAKQKLQ
- elongation of supplied fatty acid (substrate 18:3ω6 (GLA), product DGLA, 20:3ω6): elongated
- elongation of supplied fatty acid (substrate 18:4ω3 (STA), product 20:4ω3): elongated
- elongation of supplied fatty acid (substrate ARA): did not result in their elongation
- elongation of supplied fatty acid (substrate LA): did not result in their elongation
